Paper PMC4441257, “A large genomic island allows Neisseria meningitidis to utilize propionic acid, with implications for colonization of the human nasopharynx” (Molecular Microbiology, 2014)

System: CCC(=O)O
Assay: purified protein
Excerpt: hydroxamate assay of propionate kinase activity on NMB0435 (AckA1)

Substance: NMB0435 (AckA1) (Neisseria meningitidis MC58)
- Km: 16.3 ± 2.2 mM
